Test results from the nanobody polyreactivity screen of Harvey et al. (2022).

Experiment: yeast display, Sf9 membrane polyspecificity reagent, FACS + sequencing; frameworks hold sequencing errors
Procedure, shortened: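 After 36–48 hours of galactose induction, yeast (Saccharomyces cerevisiae BJ5465) displaying a synthetic nanobody library were stained at 4 °C for 1 hour with 10% biotinylated, detergent-solubilized Sf9 membrane reagent. Streptavidin microbeads enriched the stained cells before FACS sorting into low and high (top ~1%) gates on anti-HA and streptavidin fluorescence. Each clone's polyreactivity label reflects its gate of origin.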

| Sequence | polyreactivity (PSR sort gate) |
| --- | --- |
| QVQLVESGGGLVQAGGSLRLSCAASGFTFTDYAMGWYRQAPGKERELVAAITSGDSTYYADSVKGRFTISRDNAKNTVYLQMNSLKPEDTAVYYCNKLRRSPNSQYYYWGQGTQVTVSS | high polyreactivity |
| QVQLVESVGGLVQAGGSLRLSSAASGLIFDVYPMGWYSQGPGKERELVAAISTSGGRTYYADSVKGRFTISRDNAKNTVYLQMTSLKPEDTAVYYCAAVSPHNRYGYKYDYWGQGTQVTVSS | high polyreactivity |
| QVQLVESVGGLVQAGGSLRLSCAASGFIIVEYDMGWYRQAPGKEREFVAAINFSGGSTYYADSVKGRFTISRDNAKNTVYLQMNSLKPEDNAVYYCAADVVRYYYTYYYWGQGTHVTVSS | low polyreactivity |
| QVQLVESGGGLVQAGGSLRLSCAASGSTIFSYAMGWYRQSPGKERELVAAITYRSSRTYYADSVKGRFTISRDNAKNTVYLQMNSLKPEDTAVYYCARGGTAYRYHMDYWGQGTQVTVSS | high polyreactivity |
| QVQLVESGGGLVQAGGSLRLTCAASGIIFKLYAMGWYRQAPGKEREFVATITKTGGRTYYADSVKGRFTISRDNAKNTVYLQMNSLKPEDTAVDYCAARRVNGKMYYWGQGTQVTVSS | high polyreactivity |
| QVQLVESGGGLVQAGGSLRLSCAASGRTFVPYVMGWYRQAPGKERELVATINWSGGSTYYADSVKGRFTISRDNAKNTVYLQMNSLKPEDTAVYYCAADYYWTYSYYYERFDYWGLGTQVTVSS | low polyreactivity |
| QVQLVESGGGLVQAGGSLRLSCAASGRTFSKYTMGWYRQAPGKERELVAVISRSGTRTYYADSVKGRFTISRDNAKNTVYLQMNSLKPEDTAVYYCAAKDERRSFGMGYWGQGPQVTVSS | high polyreactivity |
| QVQLVESGGGLVQAGGSLRLSCAASGRIFRYYAMGWYRQAPGIERELVAAISYRGGSTYYADSVKGRFTISRDNAKNTVYLQMNSLKPEDTAVYYCNIVPRIDTRYDYWGQGTQVTVSS | high polyreactivity |
| QVQLVESGGGLVQAGGSLRLSCAASGSIFGTYAMRWYIQAPGKERDLVATISYGDGYTYYADSVKGRFTISRDNAKNTVYLLMNSLKPEDTPVYYCNTGVFSSGGPLVYWGEGTQVTVSS | low polyreactivity |
| QVQLAESGGRLVQAGGRLRLSCAASGRTSTCYAMGWYRQPPGKERELVAAISYRGGSTYYADSVKGRFTISRDNAKNSVYLHLNSLKPEDTAVYYCAAKWYWRGDYWGQGTQVTVSS | high polyreactivity |
| QVQLVESGGGLVQAGGSLRLICAASGRTFRYNAMGWYRQAPGKERELVAAITQSGGSTYYADSVKGRFTISRDNAKNTVYLQMNSLKPEDTAVYYCAKVRERINYDYWGQGTQVTVSS | low polyreactivity |
| QVQLEESGGGLVQAGGSLRLSCAASGIIFQRNDMGLYRQAPGKERELVANIRDGGITYADSVKGRFTISRDNAKNTVYLQMNSLKPEDTAVYYCARDDTSPGYCDQSSNAAYYYWGQGTQVTVSS | low polyreactivity |
| QVQLEESGGRLVQAGGSLRLSCAASGRTFGPYGMGWYRQAPGKESELDAAINGNGDSTYYADSVKGRFTISRDNAKNTVYLQMNSLKPEDTAVYYCASEGWPDYTSRLYDYWGQGTQVTVSS | low polyreactivity |
| QVQLVESGGGLVQAGGSLRLSCAASGLTFWNNAMGWYRQAPGKERELVARINNGDNTYYADSVKGRFTISRDNAKNTVYLQMNSLKPEDTAVYYCAAKRYSNIPWIHDISTFYYWGQGTQVTVSS | low polyreactivity |
| QVQLVESGGGLVQAGGSLRLSCAASGSTFLYYAMGWYRQAPGKERELVAAIDWSDTSTYYADSVKGRFTISRDNAKNTVYLQMNSLKPEDTAVYYCAADTYLVDGDYWGQGTQETVSS | low polyreactivity |
| QDQLVESGGGLVQAGGSLRLSCAASVIIFEYYTMGWYRQAPGKERELVASITYDGDSTYYADSVKRRFTISRDNAKKTVYLQMNSQTPEDTAFYSCAADYYYVYSSYGHYYWGQGTQVTVSS | low polyreactivity |
| QVQLVESGGGLVQAGGSLRLSCAASGRTFSYYAMGWYRQAPGKERELVARITYRGGRTYYADSVKGRFTISRDHAKNTVYLQMNSLKPEDTAVYYCNADAIYKRGGRDYWGQGTQVTVSS | high polyreactivity |
| QVQLVESGGGLVQAGGSLRLSCAASGSILDVYAMGWYRQAPGKERELVATISWSGGDTYYADSVKGRFTISRDNAKNTVYLQMNSLKPEDTAVYYCNDVFSYYGYDYWGQGTQVTVSS | low polyreactivity |
| QVQLVESGGGLVQAGRSLRISCAASGYTFIYYPMGWYRPAPGKERELVATISIDGSTNYADSVKGRFTISRDNAKNTVYLQMNILKPEDTAVYYCNLERYEDYDYWGQGTQVTVSS | high polyreactivity |
| QVQLVESGGGLVQAGGSLRLSCAASGSIFYRNAMGWYRQAPGKERELVAAISGRGGSTNYADSVKGRFTISRDNAKNTVYLQMNSLKPEDTAVYYCNRYGVSNILVRGGYWGQGTQVTVSS | high polyreactivity |
| QVQLVESGGGLVQAGGSLRLSCAASGRTDVAKGMGRYRQAPGKEKEMVAAINDGDVTYYADSVKGRFTISRDNAKNTVYLQMNSLKPEDTAVYYCAADIIYGYEVYTYTSDYWGQGTQVTVSS | low polyreactivity |
| QVQLVESGGGLVQAGGSLRLSCAASGLTFKSYAMGWYRQAPVKERELVAGISWSGDSTYYADSVKGRFTISRDNAKNTVYLQMNSLKPEDTAVYYCAAEYSYEYDYWGQGTQVTVSS | high polyreactivity |

| Sequence | polyreactivity (PSR sort gate) |
| --- | --- |
| QVQLVESGGRLVQAGGSLRLSCAASGFIFPRYTRGWYRQAPGKESELVAGITLRGGSTYYADSVKGRFTISRDNAKNTVYLQMNSLKPEDTAVYYCARGISRGRSFGIGYDYWGQGTQVTVSS | low polyreactivity |
| QVQLVESGGGLVQAGGSLRLSCAASGRIFTIYAMGLYRQEPGKERELVASITWRGGRTYYADSVKGRFTISRDNAKNTVYLQMNSLKPEDTAVYYCAAEFYRWGSLSFSYDYWGQGTQVTVSS | low polyreactivity |
| QVQLVESGGGLVQAGGSLRLTCAASGRIFYQYALGWYRQAPGKERELVSSITTSGGNTYYADSVKVRFTISRDNAKNTVYLQMNSLKPEDTAVYYCASRFNWRQWLYEYWGQGTQVSVSS | low polyreactivity |
| QVQVVESGGGLFQAGGSLRLSCAASGYIFRFNAMGWSRQAPGKERELVAVITSGARTYYADSVKGRFTISRDNAKNTVYFQINSLKPEDTAFYYFNAGARRYLYDYWGQGTQVTVSS | low polyreactivity |
| QVQLVESGGGLVQAGGSLRLSCAASGSTFESYAMGWYRQAPGKERELVAAISQNGGSTYYADSVKGRFTISRDNAKNTVYLQMNSLKPEDTAVYYCNADVYPYYRKPWMDYWGQGPQVTVSS | low polyreactivity |
| QVQLVESGGGLVQAGVSLRLSCAASGSTFKQYAMGWYRQAPGKERELVAAIDRGGSTYYADSVKGRFTISRDNANNTVYLQMNSLKPEYTAVYYCAARFVQYRYAFDYWGQGTQVTVSS | low polyreactivity |
| QVQLVESGGGLVQAGGSLRLSCAASGSIFGGYAMGWYRQAPGKERELVAAITSSGGRTYYADSVKGRFTISRDNAKNTVDLQMNSLKPEDTAVYYCAASPNYYYYYPMYYWGQGTQVTVSS | high polyreactivity |
| QVQLVESGGGLVQAGGSLRLSCAASGGIFPLYAMGWYRQAPGKERELVASITSGGSTYYADSVKGRFTISRDNAKNTVYLQMNSLKPEDTAVYYCAADLRITSYNSWGQGSQVTVSS | low polyreactivity |
| QVQLVESGGGLVQAGGSLRLSCAASGSIFGRYGKGWYRQAPGKERELVAAITSGTRTNYADSVKGRFTISRDNAKITVYLQMNSLTPEDTAVYYSAKQSYRRLPNTPYNYWGQGTQVTVSS | low polyreactivity |
| QVQLVESGGGLVQAGGSLRLSCAASGRTFRYNAMGWYLQAPGKERELVAAITRRDGRTYYADSVKGRFTISRDNAKNTVYLQMNSLKPEDTAVYYCGVEYWVVNAQGYDYWGQGTQVTVSS | high polyreactivity |
| QVQLVESGGGIVQAGGSLRLSCAASGIIFKYYAMGWYRQAPGKERELVAAISRIGGSTHYADSVKGRFTISRDNAKYTVYLQMNSLKPEDTAVSYCAARVLGRPLYFIYDYWGQGTQVTVSS | high polyreactivity |
| QVQLVESGGGLVQAGGSLRLSCAASGSIFFDGNAMGWYRQAPGKERELVAAISVSGGSTYYADSVKGRFTISRDNAKNTVYLQMNSLKAEDTAVYYCAKYPSKSYVPGDYWGQGTQVTVSS | low polyreactivity |
| QGQLVESGGGLVQAGGSLRLSCAASGRTFRGNTMGWYRQAPGKERELVATISSRSSSTYYADSVKGRFTISRDNAKNTVYLQMHSLKPEDTAVYYCAVTNPLVRSGYSRYFGRYDYWGQGTQVTVSS | high polyreactivity |
| QVQLVESGGGLVQAGGTLRLSCAASGSTFIGNAMGWYIQAPGKERELVAAITRSGGSTFYADSVKGRFTISRDNAKNTVYLQMNSLKPEDTAVYYCAARNGAYPALKEGDYWGQGTQVTVSS | high polyreactivity |
| QVQLVESGGGLVQAGGSLRLSCAASGSTFYAYAMGWYRQAPGTERELVAAITTIGGRTYYADSVKGRFTISRDNAKNTVYLQMNSLKPEDTAVYYCAADIRSNRLYDGGYWGQGTQVTVSS | low polyreactivity |
| QVQLVESGGGLVQAGGSLRLSCAASGRIIGSYAMGWYRQAPGKERELVAAISRGGITNYADSVKGRFTIARDNAKNTVYLQMNSLKPEDTAVYYCAVGIRYRGRQGYYGYYTYDYWGQGTQVTVSS | high polyreactivity |
| QVQLVESGGGLVQAGGSLRLSCAASGSTISSYAMGWYREAPGKERELVAAIDRSVSTNYADSVKGRFTISRDNAKNTVYLQMNSLKPEDTAVYYCNARHPTDDIVIYDYWGQGTQVTVSS | low polyreactivity |
| QVQIVESGGGLVQAGGRLRLSCAASGGIFKTYPMGWYRQAPGKERELVARINSRGGRTYYADSVKGRFTISRDYAKKTVYLQMNSLKPEATAVYYCAVRNPRYFNEYDYWGQGTQVTVSS | low polyreactivity |
| QVQLVESGGGLVQAGGSLRLSCAASGFIFRYYAMGWYRQAPGKERELVAAISWSGSRTYYADSVKGRFTISRDNAKNTVYVQMNSLKPEDTAVYYCAADGNVGVTKGRFDYWGQGTQVTVSS | high polyreactivity |
| QVHLVESGGGLVQAGGSLRLSCAASGRTFSRYPMGWYRQAPGKERELVAAIRGNSGNTYYAYSVKGRFTISRDNAKNTVYLQMNSLKPEDTAVYYCAKPFNIWGQGTQVTVSS | high polyreactivity |
| QVQLVESGAGLVQAGGSLRLSCAASGFTFYRYAMGWYRQAPGKEREFLAAITASGGSTNYADSVKGRFTISRDNAKNTVYLQMNSLKPEDTAVYYCAARQSRDFRYRGFYYWGQGTQVTVSS | high polyreactivity |
